Values quoted from earlier work in PMC3472031.

Legend:
[1] = target: EspFU R475 R475 (fifth 47-residue repeat) (Escherichia coli O157:H7) (UniProt P0DJ88)
SOS-A peptide = SOS-A peptide (UniProt Q07889)
SOS-E peptide = SOS-E peptide (UniProt Q07889)
EspFU (Escherichia coli) = EspFU (Escherichia coli) (UniProt P0DJ88)
[2] = target: EspFU peptide (Escherichia coli) (UniProt P0DJ88); assay: ITC

Substance: N-WASPC 193-501 (from UniProt O00401)
- Kd [1]: 35 nM

Substance: Grb2 (from UniProt P62993)
- Kd (SOS-A peptide): 54000 nM
- Kd (SOS-E peptide): 3500 nM

Substance: N-WASP 193-501 (from UniProt O00401)
- Kd (EspFU (Escherichia coli)): 35 nM

Substance: IRTKS SH3 (from UniProt Q9UHR4)
- Kd [2]: 500 nM
